Data published in the supplement of paper PMC10567573.

B1: BRF1 (parent)
chain: CTACGSVLEDNIIVSEVQFVESSG
B2: TSN (parent)
chain: FLAAEQDIREEIRKVVQSLEQTAR

Variants of: B1
Test: protein stability index of a GFP-peptide fusion (GPS, HEK-293T) (PSI 1-6); higher = more stable
Conditions: c terminus: a fixed tail appended
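Note: lentivirally expressed fusions sorted by FACS into six bins by GFP to DsRed ratio, PSI derived from sequencing read proportions per bin multiplied by bin number.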

Protein stability index, by site and new letter:
E16: Y 3.77 | G 3.51 | R 3.09 | A 2.66 | M 3.11 | S 2.38 | K 3.42 | N 2.9 | V 2.58 | D 3.87 | I 3.35 | F 2.08 | C 3.61 | H 3.22 | Q 2.9 | P 3.33 | T 2.2 | W 1.9 | L 3.15
S15: W 2.75 | R 3.67 | D 4.08 | E 3.74 | C 2.82 | A 3.65 | I 1.36 | G 2.92 | P 3.15 | N 3.79 | K 3.19 | M 1.16 | F 1.04 | H 2.71 | T 3.02 | Q 3.11 | L 1.69 | Y 2.06 | V 1.91
V14: Y 2.73 | L 2.78 | G 3.54 | A 3.63 | N 4.23 | R 3.89 | C 2.64 | K 3.53 | H 3.94 | Q 4.25 | S 3.49 | T 3.95 | I 2.68 | D 4.33 | W 2.14 | P 3.96 | E 4.28 | F 2.57
G24: P 3.28 | D 3.38 | W 2.09 | K 3.25 | E 3.58 | F 2.03 | Y 2.89 | V 2.45 | H 2.25 | N 3.01 | I 3.06 | R 2.64 | C 3.09 | A 3.67 | M 3.13 | Q 2.95 | S 3.08 | L 3.01
Q18: Y 1.47 | K 3.27 | M 2.36 | L 2.4 | I 1.82 | N 2.77 | G 3.47 | T 2.31 | P 3.1 | H 1.91 | V 2.01 | E 3.22 | W 1.75 | S 2.44 | A 3.26 | C 2.52 | F 1.79 | D 2.89 | R 2.42
S22: I 1.52 | D 3.7 | P 3.39 | Y 2.38 | T 2.33 | F 2.32 | H 3.06 | W 2.66 | M 2.44 | A 3.73 | K 3.81 | V 2.75 | R 2.18 | C 1.88 | Q 3.38 | N 3.07 | G 2.97 | E 3.83 | L 2.09
E21: T 2.34 | R 3.53 | N 3.51 | I 2.28 | L 2.7 | M 2.4 | A 2.58 | H 2.88 | Q 3.02 | P 3.38 | W 2.05 | C 3.27 | Y 1.77 | G 3.58 | S 2.54 | V 2.82 | K 2.94 | D 3.19 | F 1.87
S23: N 3.15 | H 3.24 | Q 3.55 | A 3.14 | K 4.04 | I 2.88 | F 2.42 | P 2.72 | C 2.9 | E 2.91 | Y 2.51 | T 3.17 | M 2.81 | V 2.63 | W 2.53 | L 3.03
I13: T 3.56 | S 4.05
V20: C 2.21 | L 3.97 | Q 3.35 | E 3.88 | F 3.15 | R 3.18 | N 2.94 | G 3.6 | D 4.52 | T 3.58 | K 3.44 | P 3.48 | I 3.11 | M 2.55 | H 3.23 | Y 2.44 | S 4.23 | A 3.65
V17: R 3.83 | E 3.88 | K 4.41 | D 3.87 | L 2.29 | S 4.35 | P 3.71 | A 4.27 | M 2.37 | I 1.92 | T 4.09 | F 2.56 | G 4.45 | W 2.1 | H 4.4 | Y 2.87 | C 3.48 | N 3.56 | Q 4.07
F19: N 4.33 | A 5.26 | P 4.2 | K 4.19 | Y 3.49 | Q 3.76 | D 4.53 | V 3.11 | M 3.63 | H 4.36 | I 2.87 | S 4.59 | C 2.43 | W 2.88 | L 3.49 | E 4.27 | T 3.98 | R 4.42 | G 4.32

Variants of: B2
Test: as above
Conditions: c terminus: a fixed tail appended

Protein stability index: each site, then its substitutions
A3: P 2.17 | T 2 | G 1.87 | W 1.5 | H 2.1 | N 1.88 | K 2.13 | C 1.36 | I 1.87 | Q 1.73 | F 2.02 | S 2.5 | L 2.33 | V 1.88 | Y 2.03 | E 2.42 | D 2.38 | M 1.72 | R 2.56
A4: Q 2.09 | T 2.13 | S 2.54 | G 2.04 | H 1.57 | D 2.11 | F 2.71 | V 1.93 | E 2.51 | K 1.71 | I 2.08 | R 1.73 | M 1.69 | P 2.01 | Y 2.03 | N 1.52 | L 2.29
L2: W 2.02 | G 3.19 | M 1.96 | Y 1.85 | H 1.75 | F 1.71 | Q 2.03 | K 2.11 | E 1.68 | P 2.68 | T 2.08 | A 2.19 | I 1.66 | C 1.82 | N 2.38 | V 1.91 | S 1.91 | R 2.4 | D 1.73
E5: L 3.1 | Y 1.76 | H 2.26 | G 2.87 | C 2.25 | T 3.32 | V 3.62 | I 2.81 | A 2.69 | F 2.5 | P 3 | R 2.66 | S 2.52 | W 2.58 | Q 2.71 | N 3.04 | M 2.79 | D 2.27
Q6: S 2.25 | V 1.79 | P 2.85 | A 2.01 | K 1.78 | R 2.53 | N 1.91 | H 1.63 | G 1.84 | I 2.1 | Y 2.09 | T 1.46 | D 1.85 | L 1.99 | E 2.85 | W 2.75 | F 1.87 | C 1.65 | M 1.86
D7: K 1.51 | M 1.73 | T 1.75 | C 2.28 | H 2.78 | R 2.35 | I 2.93 | W 2.21 | S 1.79 | P 2.22 | E 1.89 | F 2.52 | L 3.27 | V 2.13 | G 2.22 | A 2.18 | N 2.05 | Q 1.3
F1: L 2.36 | N 3.17 | S 2.51 | E 2.45 | G 2.26 | R 2.79 | W 1.85 | T 2.72 | D 2.49 | Y 2.04 | Q 2.23 | C 1.9 | K 2.41 | H 2.5 | V 2.62 | P 2.78 | M 2.39 | I 2.51 | A 2.35
